Reference: a protein production outcome set (Wang et al. 2014)

Experiment: label from the status in PepcDB records

Sequence | protein production
MGHHHHHHSHVRSPQNQYPAELMRRFELYFQGPSSNKPRVIREVRADSVGKLVTVRGIVTRVSEVKPKMVVATYTCDQCGAETYQPIQSPTFMPLIMCPSQECQTNRSGGRLYLQTRGSRFIKFQEMKMQEHSDQVPVGNIPRSITVLVEGENTRIAQPGDHVSVTGIFLPILRTGFRQVVQGLLSETYLEAHRIVK | failed
MYKSLFTIIILLYSASSYAKSESPPASTITFIAQIDHVELNKTALSHDMKLVLADRFYFKTSNPCETNSISARPESMDITDKAYADKLKKLETPFLDDRYFFMTINQCDGNGTPMLTDIKVCTTELCGAEYTKKMSTVWLDETLKPTAKRLAIYFIQSPLPYDEEKKQWKVTGWYISSTDNQSSTKQIAFEGYTDTDNLSDSKFISSFKSWFESGKIKNIANYNPKGERDGKYESYYNSNGNVYESLSFSNGLINGEFITYYENGAIESKRHFNNDKIKDGECPHFYEDGKIKQQHSYLNSKLDGPAYEYYPDGKLMQENFYQQSVLIGNDTSYYQSGKISSIHNRNSRGQYDGANERYSEEGKLLSKSVYKDGKQISVQTWYENGQKEEEKHFDEQGQLNGLVKQWYKNGNLAKSQNYKHDILDGNSEEWYENGIPESLYPYKNGKTDGIAKSWNKYGKLTYSIEYKNGVENGAYRNWSKNTGKLTKETLYVNGIRQGVEKEFNDRTGKLLTSTQYVNNKRHGTEETYDQNGIKYITCYQNDQKLSSLDNPTQIKDNATTGDSSAQFALGKYEFICANIDEGIKWLTKSAEQKNTDAIYFLATAYKGNGIPANNEKYLAYLQQAATLGSSNAQAEIGYLYLIGKELPQNLPDAGVWFKKAAAQGNFAAHFYLGRMYQNGDGVERNMEKARFHLSNAAEGGIEPALKALNELEHQTK | failed
MSLARTEKIYIYGASGHGLVCEDVAKNMGYKECIFLDDFKGMKFESTLPKYDFFIAIGNNEIRKKIYQKISENGFKIVNLIHKSALISPSAIVEENAGILIMPYVVINAKAKIEKGVILNTSSVIEHECVIGEFSHVSVGAKCAGNVKIGKNCFLGINSCVLPNLSLADDSILGGGATLVKNQDEKGVFVGVPAKRMEGGSHHHHHH | not failed
MEIKRFGRIREVIPLPPLTEIQVESYRRALQADVPPEKRENVGIQAAFRETFPIEEEDKGKGGLVLDFLEYRLGEPPFPQDECREKDLTYQAPLYARLQLIHKDTGLIKEDEVFLGHIPLMTEDGSFIINGADRVIVSQIHRSPGVYFTPDPARPGRYIASIIPLPKRGPWIDLEVEPNGVVSMKVNKRKFPLVLLLRVLGYDQETLARELGAYGELVQGLMDESVFAMRPEEALIRLFTLLRPGDPPKRDKAVAYVYGLIADPRRYDLGEAGRYKAEEKLGIRLSGRTLARFEDGEFKDEVFLPTLRYLFALTAGVPGHEVDDIDHLGNRRIRTVGELMTDQFRVGLARLARGVRERMLMGSEDSLTPAKLVNSRPLEAAIREFFSRSQLSQFKDETNPLSSLRHKRRISALGPGGLTRERAGFDVRDVHRTHYGRICPVETPEGANIGLITSLAAYARVDELGFIRTPYRRVVGGVVTDEVVYMTATEEDRYTIAQANTPLEGNRIAAERVVARRKGEPVIVSPEEVEFMDVSPKQVFSVNTNLIPFLEHDDANRALMGSNMQTQAVPLIRAQAPVVMTGLEERVVRDSLAALYAEEDGEVAKVDGNRIVVRYEDGRLVEYPLRRFYRSNQGTALDQRPRVVVGQRVRKGDLLADGPASENGFLALGQNVLVAIMPFDGYNFEDAIVISEELLKRDFYTSIHIERYEIEARDTKLGPERITRDIPHLSEAALRDLDEEGVVRIGAEVKPGDILVGRTSFKGESEPTPEERLLRSIFGEKARDVKDTSLRVPPGEGGIVVRTVRLRRGDPGVELKPGVREVVRVYVAQKRKLQVGDKLANRHGNKGVVAKILPVEDMPHLPDGTPVDVILNPLGVPSRMNLGQILETHLGLAGYFLGQRYISPIFDGAKEPEIKELLAQAFEVYFGKRKGEGFGVDKREVEVLRRAEKLGLVTPGKTPEEQLKELFLQGKVVLYDGRTGEPIEGPIVVGQMFIMKLYHMVEDKMHARSTGPYSLITQQPLGGKAQFGGQRFGEMEVWALEAYGAAHTLQEMLTLKSDDIEGRNAAYEAIIKGEDVPEPSVPESFRVLVKELQALALDVQTLDEKDNPVDIFEGLASKR | not failed
LRKMIALIHKDYAKNLRLETLASVFNYNRAYLGKLFKNYTGEYFNTYLDKVRIENGKRLLQKGYKVYEVAEKIGYANVDYFHRKFKKYVGVSPSTFRKR | not failed
MLEEYRKHVAERAAEGIAPKPLDANQMAALVELLKNPPAGEEEFLLDLLTNRVPPGVDEAAYVKAGFLAAIAKGEAKSPLLTPEKAIELLGTMQGGYNIHPLIDALDDAKLAPIAAKALSHTLLMFDNFYDVEEKAKAGNEYAKQVMQSWADAEWFLNRPALAEKLTVTVFKVTGETNTDDLSPAPDAWSRPDIPLHALAMLKNAREGIEPDQPGVVGPIKQIEALQQKGFPLAYVGDVVGTGSSRKSATNSVLWFMGDDIPHVPNKRGGGLCLGGKIAPIFFNTMEDAGALPIEVDVSNLNMGDVIDVYPYKGEVRNHETGELLATFELKTDVLIDEVRAGGRIPLIIGRGLTTKAREALGLPHSDVFRQAKDVAESDRGFSLAQKMVGRACGVKGIRPGAYCEPKMTSVGSQDTTGPMTRDELKDLACLGFSADLVMQSFCHTAAYPKPVDVNTHHTLPDFIMNRGGVSLRPGDGVIHSWLNRMLLPDTVGTGGDSHTRFPIGISFPAGSGLVAFAAATGVMPLDMPESVLVRFKGKMQPGITLRDLVHAIPLYAIKQGLLTVEKKGKKNIFSGRILEIEGLPDLKVEQAFELTDASAERSAAGCTIKLNKEPIIEYLNSNIVLLKWMIAEGYGDRRTLERRIQGMEKWLANPELLEADADAEYAAVIDIDLADIKEPILCAPNDPDDARPLSAVQGEKIDEVFIGSCMTNIGHFRAAGKLLDAHKGQLPTRLWVAPPTRMDAAQLTEEGYYSVFGKSGARIEIPGCSLCMGNQARVADGATVVSTSTRNFPNRLGTGANVFLASAELAAVAALIGKLPTPEEYQTYVAQVDKTAVDTYRYLNFNQLSQYTEKADGVIFQTAV | not failed
MNTMEEKYILSDRGKVYYWIKESNSVFAKNLIFLPGLTANHHLFDFQIQYFSKNHNVLVWDAPAHGKSRPYLDFSYSNLVEELKVILDKQNMKKVVLIGQSAGGFVAQSFIVKYPNMVEGLMMIGTCPYGTDYYSKSDIFWLKQTEWMLKLFPDKLLRNIISKMCGATSEGRRSMLKMLEGYEKKELCHLMYLGFAGFIPEIQDLNIHCPVCLVVGDKDKTGKVRKYNEQWHNKTGYPLHIIKNASHNVNVDKPNELNQIMDIFIKQLN | not failed
MPVSLYSGKVALRLLLLQLVTFALLSAVFSLNSVNAAASALGGGLAAWLPNVLFVLFALRHQSHKPADGRVAWSFAIGEALKVFITIALLVVALGVFKAAFFPLGLTYLSVLVMQIVAPIVINRYRN | failed
GSSGSSGMQLEIQVALNFIISYLYNKLPRRRVNIFGEELERLLKKKYEGHWYPEKPYKGSGFRCIHIGEKVDPVIEQASKESGLDIDDVRGNLPQDLSVWIDPFEVSYQIGEKGPVKVLYVDDNSGPSSG | not failed
MQNSFLPLNTRRFRQRAQVETPDTVYWDRLAKPELLKEHNTIDYLDFSPSDPDNFVVTCSVRVQIYNLVTMLVVKNLSRFQKTAYGATFRQDGRLLAAGDEEGHVKLFDTTSRNILRLFKGHTAPVHRTFFTADKLQLASFGDDKSVRLWDVANEKVVQTYEDTHTDYVRAGAMHPQAGHMFVSGGYDGKIKLYDTRAETAVQRTLDHGAPVESMLFLPNGSIFVSAGGSQVRVWDLISGCRLLTMMSQHHKTVTCLRLGSDGRRLLSGGLDRHVKIYDVSTYKTVHTLTYPNAVVSMAVADGDQAVVAGMVDGLVSIRRMMVDSKPSHLKKIRADRARKYFVSTKRTNNTQEVDHTIKDHVKGPGLKSYDVHLRQFNHKKALDDVMNAQKMQYQPELIVAVITDLLHRGSLGKALTGRHEAALVRFIDFICNHLGEVRFMRPLMMAASTVLDVFEQRLVAYSQKLMKALQRLSLAMQEEVRLTAELMRMKGAVDMLIGISMDNSEVAHKPTYVETKTPKMHPSVAAQNYVVLVE | failed
MRALIRYEDVPSKLWTLPKMTDFWGIGKRTEKRLNKLGISSIKELTNADPLLLKQKLGTIGLQHFFHANGIDESNVRLEHHHHHH | failed
MLHTEKVEYVNQAHEDITGIARDKSIGTNLRDLTFFRQHNALAEQTLAKIFRGDQAKGEVQFSRTDGSRYWLKYIVSQFITDRGNHYALVSGEENSDEHLEHHHHHH | failed
MAPLQTPLCSEIGIDHPVVQAPVGSVSTPSLAAAVADAGGLGMLAMSWREADAIRDAYTDAANATDGVVGVNVVLDESTGVLSPSACLDACLDAGAPVVSFSFGDAGPYIDRVHEVGGTVMVTVASAAEARAAVDAGADVVVAQGREAGGHVQSDVTTMSLLPRVADGVPVPVVAAGGLGDGRGLAAALTLDADGGWFGTRFVATEESGAHEAYRQQIVDAPETATRFTDLFDRGWPDQPHRVLETDEVRQQAGADSGGESDGSDPEQIAQMPDGEPISRFADMPPLAGMTGDVEALPHYAGQSTGLAQDVRPAGEVVARLVSDARAALADASAAAE | failed
MQPFYIKKGRGSVIYSSVRKDLPPFHLFQMGKYSVVEDFSCLNNAVGDIVIGDYCRIGLGNTVIGPIRIDNGVNISQNVVLIGLDHNYQDITQGIIEQGITTSPIHIGEHTIIGANVIVLPGITIGKHCFIGAGCVVTQNIPDYCVTVGNPARIIKRYNPQSQTWEKILEHHHHHH | failed
MEITDPGDFRQRIETSFARQGVVQAINAEISRIEHRLVEIELPFHEKLTQQHGILHAGVIAAGLDTACTYAAYTIIEPEASLLTIEFKVNLMSPGRGERFLFRGEIIKPGNNLIVADGRAYALSDGPAKLIASMTGTMMVVKGLEHHHHHH | not failed
MVGKSKSPEFNFEDGMAYFDAVKVALQDTEPEKYQEFVRIFIDYTANRFGFETLSASLQELLRDHANLCHGSNVLLPFRLQTAIPPEASAEFHINKVVGRSVPPAVAVPTMDDATSYLNAVKEAFHDEPAKYMEITKLLTDLKARRINAASVIARMEELLKDHLNLLLGFCVFLSPTRRFITKLKARFLGDGSQVVDSVLQILRMHSEGNKSKDEASQEVRALIQGHEDLLMELSEIFSDP | failed
MEKANIGFKAGIIFEKLGETGLITIAELARRLNFAADETALAAGWLARENKIYIERRNGLLYIRKELEHHHHHH | failed
MTTRRLPRPCRFNPTIHVVLAVLALLLSGLAAFADLPALTGRVVDDAGIIDAGTRAALTQKLADFEKKGSDQIVVATIPSLGGEEIEPYANRLFRFWKLGQAGENNGVLLLVAKNDHKMRIEVGYGLEGTLTDLHTKLIIENDMVPAFRAGDFSGGISKAVDDMVMVLEGNPEELEARGKRNPADSSTPIDPIVTVFLILWATMFFGGLAMAFLPPMFGTKLSPGVYRWLGMTFRYGKGPSGSSGGSGWTTGSSGGGWSSGSSSSGWSSGSSSSGGGFSGGGGSSGGGGSSGSW | failed
MLIINKLNHAQKQLEKLNFIPQQADKVDFLASSSEFKARILQLINTAKSRIYLTALYFEQDEAGQQILAALYQAKLANPALDIQILVDWHRAQRGRIGEKTTSSNADWYANMKQQYNLPPEQEIAVWGVPINGREIFGVLHLKGFIFDDTILYSGASINNVYLQQFDRYRYDRYHTLENKVLADSLVTFLQQHILTDHAVNRLDNMQRPVTANIRPAIKAFRKQLTKQQYQFAEQPESNGLMLSPIAGLGRKNQLNKTIEALFYKTQNKLTICTPYFNFPRSLITRIKWLLENGKQVEIIAGDKKANDFYTPPDKKFTMAAALPYLYEKNLRAFAKRFDSYIQNKLLTIRLWKDGENTYHLKGLWVDNRYILLTGNNLNPRAWGLDAENGILLDDPKAELAEKAALELTQIRTFTQELSHYSDLETIKDYPLEVQKLLKKFGRVKLDKIIKMLLLEHHHHHH | failed
